Measured values: the supplement of paper PMC10567573

B1: ALDH8A1 (parent)
chain: RVAKKLQSGLVWTNCWLIRELNLP

Variants of: B1
Test: protein stability index of a GFP-peptide fusion (GPS, HEK-293T) (PSI 1-6); higher = more stable
Settings: c terminus: a fixed tail appended
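Note: lentivirally expressed fusions sorted by FACS into six bins by GFP to DsRed ratio, PSI derived from sequencing read proportions per bin multiplied by bin number.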

First: RVAKKLQSELVWTNCWLIRELNLP [G9E]
Second: RVAKKLQSMLVWTNCWLIRELNLP [G9M]
The protein stability index of the first is lower: 1.72 for the first, 3.32 for the second.

First: RVAKKLQSTLVWTNCWLIRELNLP [G9T]
Second: RVAKKLQSWLVWTNCWLIRELNLP [G9W]
The protein stability index of the first is higher: 3.22 for the first, 2.58 for the second.

Compared with RVAKKLQSGDVWTNCWLIRELNLP [L10D], RVAKKLQSGRVWTNCWLIRELNLP [L10R] is higher in protein stability index: 1.51 for the first, 2.47 for the second.

First: RVAKKLQSGTVWTNCWLIRELNLP [L10T]
Second: RVAKKLQSGLDWTNCWLIRELNLP [V11D]
The protein stability index of the first is higher: 2.97 for the first, 2.32 for the second.

Going from RVAKKLQSGLEWTNCWLIRELNLP [V11E] to RVAKKLQSGLLWTNCWLIRELNLP [V11L], the protein stability index rises from 2.29 to 2.91.

First: RVAKKLQSGLPWTNCWLIRELNLP [V11P]
Second: RVAKKLQSGLWWTNCWLIRELNLP [V11W]
The protein stability index of the first is lower: 2.11 for the first, 4.66 for the second.

Going from RVAKKLQSGLVETNCWLIRELNLP [W12E] to RVAKKLQSGLVHTNCWLIRELNLP [W12H], the protein stability index falls from 2.75 to 2.37.

Going from RVAKKLQSGLVKTNCWLIRELNLP [W12K] to RVAKKLQSGLVPTNCWLIRELNLP [W12P], the protein stability index rises from 2.27 to 3.58.

Compared with RVAKKLQSGLVQTNCWLIRELNLP [W12Q], RVAKKLQSGLVSTNCWLIRELNLP [W12S] is higher in protein stability index: 1.18 for the first, 2.38 for the second.

First: RVAKKLQSGLVTTNCWLIRELNLP [W12T]
Second: RVAKKLQSGLVVTNCWLIRELNLP [W12V]
The protein stability index of the first is lower: 1.61 for the first, 1.67 for the second.

Compared with RVAKKLQSGLVWENCWLIRELNLP [T13E], RVAKKLQSGLVWHNCWLIRELNLP [T13H] is lower in protein stability index: 1.95 for the first, 1.57 for the second.

First: RVAKKLQSGLVWKNCWLIRELNLP [T13K]
Second: RVAKKLQSGLVWTDCWLIRELNLP [N14D]
The protein stability index of the first is higher: 2.59 for the first, 2.19 for the second.

Going from RVAKKLQSGLVWTFCWLIRELNLP [N14F] to RVAKKLQSGLVWTICWLIRELNLP [N14I], the protein stability index falls from 2.33 to 1.2.

First: RVAKKLQSGLVWTKCWLIRELNLP [N14K]
Second: RVAKKLQSGLVWTLCWLIRELNLP [N14L]
The protein stability index of the first is higher: 2.73 for the first, 2.19 for the second.

Compared with RVAKKLQSGLVWTMCWLIRELNLP [N14M], RVAKKLQSGLVWTPCWLIRELNLP [N14P] is higher in protein stability index: 2.04 for the first, 2.06 for the second.

First: RVAKKLQSGLVWTVCWLIRELNLP [N14V]
Second: RVAKKLQSGLVWTYCWLIRELNLP [N14Y]
The protein stability index of the first is lower: 1.22 for the first, 1.59 for the second.

Going from RVAKKLQSGLVWTNAWLIRELNLP [C15A] to RVAKKLQSGLVWTNEWLIRELNLP [C15E], the protein stability index falls from 2.39 to 1.8.

First: RVAKKLQSGLVWTNHWLIRELNLP [C15H]
Second: RVAKKLQSGLVWTNIWLIRELNLP [C15I]
The protein stability index of the first is higher: 3.92 for the first, 2.44 for the second.

Going from RVAKKLQSGLVWTNLWLIRELNLP [C15L] to RVAKKLQSGLVWTNPWLIRELNLP [C15P], the protein stability index falls from 2.64 to 2.17.

First: RVAKKLQSGLVWTNRWLIRELNLP [C15R]
Second: RVAKKLQSGLVWTNVWLIRELNLP [C15V]
The protein stability index of the first is higher: 3.14 for the first, 2.65 for the second.

First: RVAKKLQSGLVWTNCALIRELNLP [W16A]
Second: RVAKKLQSGLVWTNCDLIRELNLP [W16D]
The protein stability index of the first is higher: 2.71 for the first, 1.63 for the second.

Compared with RVAKKLQSGLVWTNCELIRELNLP [W16E], RVAKKLQSGLVWTNCFLIRELNLP [W16F] is higher in protein stability index: 1.43 for the first, 2.47 for the second.

Compared with RVAKKLQSGLVWTNCGLIRELNLP [W16G], RVAKKLQSGLVWTNCHLIRELNLP [W16H] is higher in protein stability index: 1.32 for the first, 1.92 for the second.

Variant RVAKKLQSGLVWTNCKLIRELNLP [W16K] has a protein stability index of 2.08.
